These results are taken from patent publication US20120045393A1 (priority 2009, published 2012).

Non-standard residues stand in square brackets, D forms with d. *: point of attachment. Bpa = N[C@@H](Cc1ccc(C(=O)c2ccccc2)cc1)C(=O)O; d1Nal = N[C@H](Cc1cccc2ccccc12)C(=O)O; d2Nal = N[C@H](Cc1ccc2ccccc2c1)C(=O)O; d3Pal = N[C@H](Cc1cccnc1)C(=O)O; His(1-Me) = 1-methylhistidine; DO3A10CM = not defined here; Nicotinoyl = O=C(c1cccnc1)*; Bzgly = not defined here; dCfe4 = not defined here; Afe4 = not defined here; azaGly = NNC(=O)O; Sar = CNCC(=O)O; iPr = CC(C)*

Assay [1] concerns the target LHRH receptor (LHRH binding sites) on EFO-27 human ovarian cancer cells (human). As to the kind of experiment: direct binding of 177Lu-labeled peptide to EFO-27 cells, single concentration.
For assay [2] the target is unchanged. As to the kind of experiment: competition with [125I-Tyr8]BRU-2477 for binding to EFO-27 cells.
Assay [3] shares this target. As to the kind of experiment: competition with [125I-Tyr8]BRU-2477, EFO-27 cells.
The target of assay [4] is LHRH binding sites on EFO-27 human ovarian cancer cells (human). As to the kind of experiment: competition with [125I-Tyr8]BRU-2477 on EFO-27 cells.

B1: ^177Lu-BRU-2443 (peptide)
peptide: XHWSHXWXPX
modifications: 177Lu held by the N-terminal DO3A10CM: 177Lu-DO3A10CM-Sar-His-Trp-Ser-His-Darg-Trp-Bpa4-Pro-azaGly-NH2
Take B1: the % Bound in assay [1] came out at 1.8%.

For the molecule XRWSHXWXP (Sar at 1; Darg at 6; Bpa4 at 8; C-terminal Ampip2 linker carrying DO3A10CM) [BRU-3102], the EC50 in assay [2] and in assay [3] was 200 nM each time.

B2: BRU-2968 (peptide)
peptide: XRWSHXWXP
modifications: as printed: DO3A10CM-Dnal2-Arg-Trp-Ser-His-Darg-Trp-Bpa4-Pro-Da15o3pt (C-terminal amide of 1,5-diamino-3-oxapentane)
For B2, the EC50 in assay [2], in assay [4] and in assay [3] was 240 nM throughout.

B3: ^177Lu-BRU-2725 (peptide)
peptide: XHWSHXWXPX
modifications: 177Lu held by the N-terminal DO3A10CM: 177Lu-DO3A10CM-Sar-His-Trp-Ser-His-Darg-Trp-Cfe4-Pro-azaGly-NH2
In assay [1], B3 came in with a % Bound of 0.41%.

B4: ^177Lu-BRU-2812 (peptide)
peptide: DO3A10CM-[d2Nal][Afe4]WSH[dR]W[Bpa]P[azaGly]-NH2
modifications: reading uncertain; also: 177Lu held by N-terminal DO3A10CM, printed as 177Lu-DO3A10CM-Dnal2-Afe4-Trp-Ser-His-Darg-Trp-Bpa4-Pro-azaGly-NH2
In assay [1], B4 yielded a % Bound of 5.8%.

As to XRWSHXWXP (Sar at 1; Darg at 6; Bpa4 at 8; C-terminal Dapt15 linker carrying DO3A10CM) [BRU-3085], the concentration giving a half-maximal response (EC50) in assay [2] and in assay [3] was 400 nM in each case.

B5: ^177Lu-BRU-2766 (peptide)
peptide: DO3A10CM-G[d1Nal]HWSH[dR]W[Bpa]P[azaGly]-NH2
modifications: reading uncertain; also: 177Lu complexed by DO3A10CM, printed as 177Lu-DO3A10CM-Gly-Dnal1-His-Trp-Ser-His-Darg-Trp-Bpa4-Pro-azaGly-NH2
In assay [1], B5 had a % Bound of 10.3%.

B6: ^177Lu-BRU-2721 (peptide)
peptide: XHWSHXWXPX
modifications: 177Lu held by the N-terminal DO3A10CM: 177Lu-DO3A10CM-Sar-His-Trp-Ser-His-Darg-Trp-Dip-Pro-azaGly-NH2
On to B6, for which, in assay [1], the % Bound was determined as 0.79%.

B7: ^177Lu-BRU-2894 (peptide)
peptide: XHWSHXWXPX
modifications: 177Lu held by the N-terminal DO3A10CM: 177Lu-DO3A10CM-Dphe-His-Trp-Ser-His-Darg-Trp-Bpa4-Pro-azaGly-NH2
B7: the % Bound in assay [1] amounted to 3.4%.

B8: ^177Lu-BRU-2742 (peptide)
peptide: XHWSHXWXPX
modifications: 177Lu held by the N-terminal DO3A10CM: 177Lu-DO3A10CM-Sar-His-Trp-Ser-His-Darg-Trp-Tha-Pro-azaGly-NH2
In assay [1], B8 came in with a % Bound of 0.125%.

B9: ^177Lu-BRU-2736 (peptide)
peptide: XHWSHXWXPX
modifications: 177Lu held by the N-terminal DO3A10CM: 177Lu-DO3A10CM-Meala-His-Trp-Ser-His-Darg-Trp-Bpa4-Pro-azaGly-NH2
As for B9, in assay [1], the % Bound was determined as 1.62%.

XRWSHXWX (Sar at 1; Darg at 6; Bpa4 at 8; Am2prd at 9 carrying DO3A10CM) [BRU-3117]: the EC50 in assay [2] and in assay [3] was 340 nM each time.

B10: ^177Lu-BRU-2896 (peptide)
peptide: XHWSHXWXPX
modifications: 177Lu held by the N-terminal DO3A10CM: 177Lu-DO3A10CM-Adoa-Adoa-Sar-His-Trp-Ser-His-Darg-Trp-Bpa4-Pro-azaGly-NH2
The molecule B10 gave a % Bound in assay [1] of 0.7%.

For the molecule XHWSHXWXPX (N-terminal DO3A10CM; Dnal1 at 1; Darg at 6; Bpa4 at 8; azaGly-NH2 at 10) [BRU-2869], the concentration for a half-maximal effect (EC50) in assay [2], in assay [4] and in assay [3] was 360 nM each time.

B11: ^177Lu-BRU-2696 (peptide)
peptide: XXHWSHXWXPX
modifications: 177Lu held by the N-terminal DO3A10CM: 177Lu-DO3A10CM-Gly-Abz4-Sar-His-Trp-Ser-His-Darg-Trp-Bpa4-Pro-azaGly-NH2
B11 came in with a % Bound in assay [1] of 0.94%.

B12: ^177Lu-BRU-2792 (peptide)
peptide: DO3A10CM-G[Bzgly]HWSH[dR]W[Bpa]P[azaGly]-NH2
modifications: reading uncertain; also: 177Lu complexed by DO3A10CM, printed as 177Lu-DO3A10CM-Gly-Bzgly-His-Trp-Ser-His-Darg-Trp-Bpa4-Pro-azaGly-NH2
With B12, in assay [1], the % Bound worked out at 1.28%.

B13: ^177Lu-BRU-2722 (peptide)
peptide: XHWSHXWXPX
modifications: 177Lu held by the N-terminal DO3A10CM: 177Lu-DO3A10CM-Sar-His-Trp-Ser-His-Darg-Trp-F5fe-Pro-azaGly-NH2
B13 came in with a % Bound in assay [1] of 0.36%.

B14: ^177Lu-BRU-2613 (peptide)
peptide: DO3A10CM-G[Sar][dCfe4][d1Nal]S[Metyr][dK](Nicotinoyl)LK(iPr)P[dA]-NH2
modifications: reading uncertain; also: 177Lu complexed by DO3A10CM, printed as 177Lu-DO3A10CM-Gly-Sar-Dcfe4-Dnal1-Ser-Metyr-Dlys(Nic)-Leu-Lys(isp)-Pro-Dala-NH2
B14: the % Bound in assay [1] stood at 0.17%.

Consider XRWSHXWXP (Sar at 1; Darg at 6; Bpa4 at 8; C-terminal Dae linker carrying DO3A10CM) [BRU-3103], for which the EC50 in assay [2] and in assay [3] was 170 nM in each case.

B15: ^177Lu-BRU-2624 (peptide)
peptide: XHWSHXWXPX
modifications: 177Lu held by the N-terminal DO3A10CM: 177Lu-DO3A10CM-Sar-His-Trp-Ser-His-Darg-Trp-Nal2-Pro-azaGly-NH2
Molecule B15 registered a % Bound in assay [1] of 4.03%.

B16: ^177Lu-BRU-2869 (peptide)
peptide: XHWSHXWXPX
modifications: 177Lu held by the N-terminal DO3A10CM: 177Lu-DO3A10CM-Dnal1-His-Trp-Ser-His-Darg-Trp-Bpa4-Pro-azaGly-NH2
In turn, B16 gave a % Bound in assay [1] of 9.2%.

B17: ^177Lu-BRU-2823 (peptide)
peptide: XHWSHXWXPX
modifications: 177Lu held by the N-terminal DO3A10CM: 177Lu-DO3A10CM-Sar-His-Trp-Ser-His-Darg-Trp-Thy-Pro-azaGly-NH2
For the molecule B17, the % Bound in assay [1] is 1%.

B18: ^177Lu-BRU-2738 (peptide)
peptide: XFWSHXWXPX
modifications: 177Lu held by the N-terminal DO3A10CM: 177Lu-DO3A10CM-Sar-Phe-Trp-Ser-His-Darg-Trp-Bpa4-Pro-azaGly-NH2
Regarding B18, the % Bound in assay [1] was found to be 1.41%.

B19: ^177Lu-BRU-2767 (peptide)
peptide: DO3A10CM-[Sar]HWSH[dR]WP[azaGly]-NH2
modifications: reading uncertain; also: 177Lu complexed by DO3A10CM, printed as 177Lu-DO3A10CM-Sar-His-Trp-Ser-His-Darg-Trp-azaG-NH2
Regarding B19, in assay [1], the % Bound is 1.06%.

B20: ^177Lu-BRU-2741 (peptide)
peptide: DO3A10CM-[Sar][His(1-Me)]WSH[dR]W[Bpa]P[azaGly]-NH2
modifications: reading uncertain; also: 177Lu complexed by DO3A10CM, printed as 177Lu-DO3A10CM-Sar-His(1-Me)-Trp-Ser-His-Darg-Trp-Bpa4-Pro-azaGly-NH2
B20 yielded a % Bound in assay [1] of 1.35%.

B21: ^177Lu-BRU-2810 (peptide)
peptide: XHWSHXWXPX
modifications: 177Lu held by the N-terminal DO3A10CM: 177Lu-DO3A10CM-Dafe4-His-Trp-Ser-His-Darg-Trp-Bpa4-Pro-azaGly-NH2
B21 displayed a % Bound in assay [1] of 2.4%.

B22: ^177Lu-BRU-2440 (peptide)
peptide: DO3A10CM-[Sar]HWSH[dR]WYP[azaGly]-NH2
modifications: reading uncertain; also: 177Lu complexed by DO3A10CM, printed as 177Lu-DO3A10CM-Sar-His-Trp-Ser-His-Darg-Trp-Tyr-Pro-azaGly-NH2
B22 registered a % Bound in assay [1] of 0.21%.

B23: ^177Lu-BRU-2644 (peptide)
peptide: DO3A10CM-G[d2Nal][dCfe4][d3Pal]SH[dR]WYP[dA]-NH2
modifications: reading uncertain; also: 177Lu complexed by DO3A10CM, printed as 177Lu-DO3A10CM-Gly-Dnal2-Dcfe4-Dpal3-Ser-His-Darg-Trp-Tyr-Pro-Dala-NH2
The molecule B23 yielded a % Bound in assay [1] of 2.13%.
